Reference: patent US20230242651A1 (published 2023)
Where a chain is given by its changes, count along the chain named.

T1: human interleukin-23 receptor (IL23R) (human, UniProt Q5VWK5 24-355, limits assumed)
T1 construct: also called human IL23R
T1 sequence (looked up): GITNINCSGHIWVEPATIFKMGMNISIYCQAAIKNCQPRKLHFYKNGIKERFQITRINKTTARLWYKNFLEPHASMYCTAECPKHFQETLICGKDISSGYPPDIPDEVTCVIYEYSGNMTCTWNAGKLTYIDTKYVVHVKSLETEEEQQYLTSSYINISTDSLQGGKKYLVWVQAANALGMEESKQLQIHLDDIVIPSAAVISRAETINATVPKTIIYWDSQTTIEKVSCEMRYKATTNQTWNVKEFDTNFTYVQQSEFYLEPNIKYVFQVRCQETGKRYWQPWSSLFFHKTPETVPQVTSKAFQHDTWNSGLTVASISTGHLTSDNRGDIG

B1: Vκ1/VH6 consensus λ-capped, human IL23R specific scFv (scFv)
scFv: DIQMTQSPSSLSASVGDRVTITCQASENIYSFLAWYQQKPGKAPKLLIYSASKLAAGVPSRFSGSGSGTDFTLTISSLQPEDFATYYCQQTNRYSNPDIYNVFGGGTKLTVLGGGGGSGGGGSGGGGSGGGGSQVQLQQSGPGLVKPSQTLSLTCAISGIDFNSNYYMCWIRQSPGRGLEWLGCIYVGSHVNTYYANWAKGRITINPDTSKNQFSLQLNSVTPEDTAVYYCATSGSSVLYFKFWGQGTLVTVSS
notes: scFv VL-linker-VH, made in E. coli; also called Vκ1VH6 capped
B2: Vκ1/VH5 consensus λ-capped, human IL23R specific scFv (scFv)
scFv: DIQMTQSPSSLSASVGDRVTITCQASENIYSFLAWYQQKPGKAPKLLIYSASKLAAGVPSRFSGSGSGTDFTLTISSLQPEDFATYYCQQTNRYSNPDIYNVFGGGTKLTVLGGGGGSGGGGSGGGGSGGGGSEVQLVQSGAEVKKPGESLKISCKGSGIDFNSNYYMCWVRQMPGKGLEWMGCIYVGSHVNTYYANWAKGQVTISADKSISTAYLQWSSLKASDTAMYYCATSGSSVLYFKFWGQGTLVTVSS
notes: scFv VL-linker-VH, made in E. coli; also called Vκ1VH5 capped
B3: Vκ1/VH4 consensus λ-capped, human IL23R specific scFv (scFv)
scFv: DIQMTQSPSSLSASVGDRVTITCQASENIYSFLAWYQQKPGKAPKLLIYSASKLAAGVPSRFSGSGSGTDFTLTISSLQPEDFATYYCQQTNRYSNPDIYNVFGGGTKLTVLGGGGGSGGGGSGGGGSGGGGSQVQLQESGPGLVKPSETLSLTCTVSGIDFNSNYYMCWIRQPPGKGLEWIGCIYVGSHVNTYYANWAKGRVTISVDTSKNQFSLKLSSVTAADTAVYYCATSGSSVLYFKFWGQGTLVTVSS
notes: scFv VL-linker-VH, made in E. coli; also called Vκ1VH4 capped
B4: VK1/VH3 consensus λ-capped, TNF-specific scFv (scFv)
scFv: DIQMTQSPSSLSASVGDRVTITCQASQSISDWLAWYQQKPGKAPKLLIYGASRLASGVPSRFSGSGSGTDFTLTISSLQPEDFATYYCQQGWSDSYVDNLFGGGTKLTVLGGGGGSGGGGSGGGGSGGGGSEVQLVESGGGLVQPGGSLRLSCAASGFSLSSGAMSWVRQAPGKGLEWVSVIISSGATYYASWAKGRFTISRDNSKNTLYLQMNSLRAEDTAVYYCARGGPDDSNSMGTFDPWGQGTLVTVSS
notes: also called capped Vκ1/VH3 consensus molecule (TNF CDRs)
B5: VK1/VH3 consensus uncapped, TNF-specific scFv (scFv)
scFv: B4 scFv with G103Q, L107V, T108E, V109I, L110K, G111R
notes: also called control molecule (Vκ1/VH3 consensus)
B6: Vκ1/VH3 consensus λ-capped, human IL23R specific scFv (scFv)
scFv: DIQMTQSPSSLSASVGDRVTITCQASENIYSFLAWYQQKPGKAPKLLIYSASKLAAGVPSRFSGSGSGTDFTLTISSLQPEDFATYYCQQTNRYSNPDIYNVFGGGTKLTVLGGGGGSGGGGSGGGGSGGGGSEVQLVESGGGLVQPGGSLRLSCAASGIDFNSNYYMCWVRQAPGKGLEWVSCIYVGSHVNTYYANWAKGRFTISRDNSKNTLYLQMNSLRAEDTAVYYCATSGSSVLYFKFWGQGTLVTVSS
notes: scFv VL-linker-VH, made in E. coli; also called Vκ1VH3 capped
B7: Vκ2/VH6 consensus λ-capped, human IL23R specific scFv (scFv)
scFv: DIVMTQSPLSLPVTPGEPASISCQASENIYSFLAWYLQKPGQSPQLLIYSASKLAAGVPDRFSGSGSGTDFTLKISRVEAEDVGVYYCQQTNRYSNPDIYNVFGGGTKLTVLGGGGGSGGGGSGGGGSGGGGSQVQLQQSGPGLVKPSQTLSLTCAISGIDFNSNYYMCWIRQSPGRGLEWLGCIYVGSHVNTYYANWAKGRITINPDTSKNQFSLQLNSVTPEDTAVYYCATSGSSVLYFKFWGQGTLVTVSS
notes: scFv VL-linker-VH, made in E. coli; also called Vκ2VH6 capped
B8: Vκ3/VH1A consensus λ-capped, human IL23R specific scFv (scFv)
scFv: DIVLTQSPATLSLSPGERATLSCQASENIYSFLAWYQQKPGQAPRLLIYSASKLAAGVPARFSGSGSGTDFTLTISSLEPEDFAVYYCQQTNRYSNPDIYNVFGGGTKLTVLGGGGGSGGGGSGGGGSGGGGSQVQLVQSGAEVKKPGSSVKVSCKASGIDFNSNYYMCWVRQAPGQGLEWMGCIYVGSHVNTYYANWAKGRVTITADESTSTAYMELSSLRSEDTAVYYCATSGSSVLYFKFWGQGTLVTVSS
notes: scFv VL-linker-VH, made in E. coli; also called Vκ3VH1A capped
B9: Vκ3/VH1B consensus λ-capped, human IL23R specific scFv (scFv)
scFv: B8 scFv with S149A, I205M, A207R, E209T, T211I
notes: scFv VL-linker-VH, made in E. coli; also called Vκ3VH1B capped
B10: Vκ2/VH4 consensus λ-capped, human IL23R specific scFv (scFv)
scFv: DIVMTQSPLSLPVTPGEPASISCQASENIYSFLAWYLQKPGQSPQLLIYSASKLAAGVPDRFSGSGSGTDFTLKISRVEAEDVGVYYCQQTNRYSNPDIYNVFGGGTKLTVLGGGGGSGGGGSGGGGSGGGGSQVQLQESGPGLVKPSETLSLTCTVSGIDFNSNYYMCWIRQPPGKGLEWIGCIYVGSHVNTYYANWAKGRVTISVDTSKNQFSLKLSSVTAADTAVYYCATSGSSVLYFKFWGQGTLVTVSS
notes: scFv VL-linker-VH, made in E. coli; also called Vκ2VH4 capped
B11: Vκ1/VH2 consensus λ-capped, human IL23R specific scFv (scFv)
scFv: DIQMTQSPSSLSASVGDRVTITCQASENIYSFLAWYQQKPGKAPKLLIYSASKLAAGVPSRFSGSGSGTDFTLTISSLQPEDFATYYCQQTNRYSNPDIYNVFGGGTKLTVLGGGGGSGGGGSGGGGSGGGGSQVQLKESGPALVKPTQTLTLTCTFSGIDFNSNYYMCWIRQPPGKALEWLACIYVGSHVNTYYANWAKGRLTISKDTSKNQVVLTMTNMDPVDTATYYCATSGSSVLYFKFWGQGTLVTVSS
notes: scFv VL-linker-VH, made in E. coli; also called Vκ1VH2 capped
B12: Vκ3/VH2 consensus λ-capped, human IL23R specific scFv (scFv)
scFv: DIVLTQSPATLSLSPGERATLSCQASENIYSFLAWYQQKPGQAPRLLIYSASKLAAGVPARFSGSGSGTDFTLTISSLEPEDFAVYYCQQTNRYSNPDIYNVFGGGTKLTVLGGGGGSGGGGSGGGGSGGGGSQVQLKESGPALVKPTQTLTLTCTFSGIDFNSNYYMCWIRQPPGKALEWLACIYVGSHVNTYYANWAKGRLTISKDTSKNQVVLTMTNMDPVDTATYYCATSGSSVLYFKFWGQGTLVTVSS
notes: scFv VL-linker-VH, made in E. coli; also called Vκ3VH2 capped
B13: Vκ2/VH3 consensus λ-capped, human IL23R specific scFv (scFv)
scFv: DIVMTQSPLSLPVTPGEPASISCQASENIYSFLAWYLQKPGQSPQLLIYSASKLAAGVPDRFSGSGSGTDFTLKISRVEAEDVGVYYCQQTNRYSNPDIYNVFGGGTKLTVLGGGGGSGGGGSGGGGSGGGGSEVQLVESGGGLVQPGGSLRLSCAASGIDFNSNYYMCWVRQAPGKGLEWVSCIYVGSHVNTYYANWAKGRFTISRDNSKNTLYLQMNSLRAEDTAVYYCATSGSSVLYFKFWGQGTLVTVSS
notes: scFv VL-linker-VH, made in E. coli; also called Vκ2VH3 capped
B14: Vκ2/VH1A consensus λ-capped, human IL23R specific scFv (scFv)
scFv: DIVMTQSPLSLPVTPGEPASISCQASENIYSFLAWYLQKPGQSPQLLIYSASKLAAGVPDRFSGSGSGTDFTLKISRVEAEDVGVYYCQQTNRYSNPDIYNVFGGGTKLTVLGGGGGSGGGGSGGGGSGGGGSQVQLVQSGAEVKKPGSSVKVSCKASGIDFNSNYYMCWVRQAPGQGLEWMGCIYVGSHVNTYYANWAKGRVTITADESTSTAYMELSSLRSEDTAVYYCATSGSSVLYFKFWGQGTLVTVSS
notes: scFv VL-linker-VH, made in E. coli; also called Vκ2VH1A capped
B15: Vκ2/VH5 consensus λ-capped, human IL23R specific scFv (scFv)
scFv: DIVMTQSPLSLPVTPGEPASISCQASENIYSFLAWYLQKPGQSPQLLIYSASKLAAGVPDRFSGSGSGTDFTLKISRVEAEDVGVYYCQQTNRYSNPDIYNVFGGGTKLTVLGGGGGSGGGGSGGGGSGGGGSEVQLVQSGAEVKKPGESLKISCKGSGIDFNSNYYMCWVRQMPGKGLEWMGCIYVGSHVNTYYANWAKGQVTISADKSISTAYLQWSSLKASDTAMYYCATSGSSVLYFKFWGQGTLVTVSS
notes: scFv VL-linker-VH, made in E. coli; also called Vκ2VH5 capped
B16: Vκ3/VH5 consensus λ-capped, human IL23R specific scFv (scFv)
scFv: DIVLTQSPATLSLSPGERATLSCQASENIYSFLAWYQQKPGQAPRLLIYSASKLAAGVPARFSGSGSGTDFTLTISSLEPEDFAVYYCQQTNRYSNPDIYNVFGGGTKLTVLGGGGGSGGGGSGGGGSGGGGSEVQLVQSGAEVKKPGESLKISCKGSGIDFNSNYYMCWVRQMPGKGLEWMGCIYVGSHVNTYYANWAKGQVTISADKSISTAYLQWSSLKASDTAMYYCATSGSSVLYFKFWGQGTLVTVSS
notes: scFv VL-linker-VH, made in E. coli; also called Vκ3VH5 capped

How the values were obtained:
[1] = target: T1, human interleukin-23 receptor (IL23R); experiment: SPR, scFv
Method in brief: (§1)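 Affinity values for human IL23R come from surface plasmon resonance, expressed as rate constants and dissociation constant or as the λ-capped to uncapped dissociation-constant ratio. The tested molecules were humanized rabbit scFv on consensus germline framework pairs, either uncapped or with Vκ framework IV replaced by a Vλ germline sequence (λ-cap), refolded from E. coli inclusion bodies.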

[2] = target: T1, human interleukin-23 receptor (IL23R); experiment: SPR, scFv (summary table)
Method in brief: as §1

[3] = target: T1, human interleukin-23 receptor (IL23R); experiment: SPR; KD of the capped scFv over KD of its uncapped counterpart
Method in brief: as §1

human TNF = human TNF (human, UniProt P01375 77-233); experiment: SPR, scFv
Chain of human TNF (P01375 77-233 limits assumed): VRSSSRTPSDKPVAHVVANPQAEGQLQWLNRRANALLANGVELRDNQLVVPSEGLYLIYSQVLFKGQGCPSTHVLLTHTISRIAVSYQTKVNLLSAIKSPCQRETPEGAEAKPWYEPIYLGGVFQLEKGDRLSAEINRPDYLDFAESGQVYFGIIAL

| Binder | Kd [1] | koff [1] | kon [1] | Kd [2] | Ratio (capped/uncapped) of KD [3] | Kd (human TNF) | koff (human TNF) | kon (human TNF) |
| --- | --- | --- | --- | --- | --- | --- | --- | --- |
| B1 | 0.245 nM | 0.000349 s⁻¹ | 1.42e+06 M⁻¹ s⁻¹ | 0.245 nM | 1 |  |  |  |
| B2 | 0.398 nM | 0.000671 s⁻¹ | 1.69e+06 M⁻¹ s⁻¹ | 0.398 nM | 1.7 |  |  |  |
| B3 | 0.0455 nM | 0.000191 s⁻¹ | 4.2e+06 M⁻¹ s⁻¹ | 0.0455 nM | 0.5 |  |  |  |
| B4 |  |  |  |  |  | 0.225 nM | 9.41e-05 s⁻¹ | 419000 M⁻¹ s⁻¹ |
| B5 |  |  |  |  |  | 0.265 nM | 0.000105 s⁻¹ | 395000 M⁻¹ s⁻¹ |
| B6 | 0.0137 nM | 5.43e-05 s⁻¹ | 3.95e+06 M⁻¹ s⁻¹ | 0.0137 nM | 0.4 |  |  |  |
| B7 | 0.887 nM | 0.000475 s⁻¹ | 535000 M⁻¹ s⁻¹ | 0.887 nM | 0.3 |  |  |  |
| B8 | 0.585 nM | 0.00117 s⁻¹ | 2e+06 M⁻¹ s⁻¹ | 0.585 nM | 2 |  |  |  |
| B9 | 0.181 nM | 0.000506 s⁻¹ | 2.8e+06 M⁻¹ s⁻¹ | 0.181 nM | 0.4 |  |  |  |
| B10 | 0.0481 nM | 0.000112 s⁻¹ | 2.33e+06 M⁻¹ s⁻¹ | 0.0481 nM | 0.4 |  |  |  |
| B11 | 0.0731 nM | 0.000128 s⁻¹ | 1.76e+06 M⁻¹ s⁻¹ | 0.0731 nM | 0.3 |  |  |  |
| B12 | 0.0916 nM | 0.000152 s⁻¹ | 1.66e+06 M⁻¹ s⁻¹ | 0.0916 nM | 0.2 |  |  |  |
| B13 | 0.0397 nM | 7.77e-05 s⁻¹ | 1.95e+06 M⁻¹ s⁻¹ | 0.0397 nM | 1.7 |  |  |  |
| B14 | 0.0772 nM | 0.000184 s⁻¹ | 2.39e+06 M⁻¹ s⁻¹ | 0.0772 nM | 0.3 |  |  |  |
| B15 | 0.476 nM | 0.000715 s⁻¹ | 1.5e+06 M⁻¹ s⁻¹ | 0.476 nM | 1.6 |  |  |  |
| B16 | 0.864 nM | 0.0013 s⁻¹ | 1.5e+06 M⁻¹ s⁻¹ | 0.864 nM | 1.6 |  |  |  |
